From US20200339648A1 (University of Washington, published 2020)

Columns and labels:
[1] = molecular target: T1, IL-2Rβγc (species not stated); test: biolayer interferometry
T1 chain 1: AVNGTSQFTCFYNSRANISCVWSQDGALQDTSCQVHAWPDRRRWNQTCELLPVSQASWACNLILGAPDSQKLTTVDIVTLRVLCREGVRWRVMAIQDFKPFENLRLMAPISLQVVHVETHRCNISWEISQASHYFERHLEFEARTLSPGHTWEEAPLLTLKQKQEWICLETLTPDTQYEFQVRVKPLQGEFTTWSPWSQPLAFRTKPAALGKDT
T1 chain 2: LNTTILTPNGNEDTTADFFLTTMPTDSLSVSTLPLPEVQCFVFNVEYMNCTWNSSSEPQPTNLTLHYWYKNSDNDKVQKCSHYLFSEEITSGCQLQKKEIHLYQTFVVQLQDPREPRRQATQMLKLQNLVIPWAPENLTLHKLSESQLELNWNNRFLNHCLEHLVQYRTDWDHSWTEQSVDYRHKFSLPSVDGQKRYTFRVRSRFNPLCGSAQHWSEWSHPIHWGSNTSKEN

[2] = molecular target: T2, human IL-2 receptor β subunit (hIL-2Rβ) (human, UniProt P14784 27-240, biotin on the C-terminal biotin acceptor peptide); test: SPR, equilibrium titration; biotinylated IL-2Rβ on streptavidin chip
T2 construct: Biotinylated and immobilised on streptavidin; also called HsIL-2Rβ; human IL-2Rβ
T2 sequence: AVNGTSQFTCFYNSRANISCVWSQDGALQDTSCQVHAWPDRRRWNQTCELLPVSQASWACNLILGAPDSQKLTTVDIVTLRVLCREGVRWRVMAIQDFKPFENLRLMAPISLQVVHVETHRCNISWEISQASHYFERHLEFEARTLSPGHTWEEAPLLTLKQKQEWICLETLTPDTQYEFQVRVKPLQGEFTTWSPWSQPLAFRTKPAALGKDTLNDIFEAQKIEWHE
Procedure: (§1) Less than 100 response units (RU) of each ligand was immobilized to minimize mass transfer effects. […] Surface regeneration for all interactions was conducted using 15 s exposure to 1 M MgCl2 in 10 mM sodium acetate pH 5.5. SPR experiments were carried out in HBS-P+ buffer (GE Healthcare) supplemented with 0.2% bovine serum albumin (BSA) at 25° C. and all binding studies were performed at a flow rate of […] to prevent analyte rebinding. Data was visualized and processed using the Biacore T100 evaluation software version 2.0 (GE Healthcare). Equilibrium titration curve fitting and equilibrium binding dissociation (KD) value determination was implemented using GraphPad Prism assuming all binding interactions to be first order. Biolayer interferometry: binding data were collected in a Octet RED96 (ForteBio, Menlo Park, Calif.) and processed using the instrument's integrated software using a 1:1 binding model. […] Analyte proteins were diluted from concentrated stocks into binding buffer. After baseline measurement in binding buffer alone, the binding kinetics were monitored by dipping the biosensors in wells containing 100 nM of the designed protein (association) and then dipping the sensors back into baseline wells (dissociation).

[3] = molecular target: T3, human IL-2Rβγc on human cells (YT-1 NK cells) (human, UniProt P14784 27-551; P31785 23-369); test: cell-based or functional assay
T3 sequence (looked up) 1: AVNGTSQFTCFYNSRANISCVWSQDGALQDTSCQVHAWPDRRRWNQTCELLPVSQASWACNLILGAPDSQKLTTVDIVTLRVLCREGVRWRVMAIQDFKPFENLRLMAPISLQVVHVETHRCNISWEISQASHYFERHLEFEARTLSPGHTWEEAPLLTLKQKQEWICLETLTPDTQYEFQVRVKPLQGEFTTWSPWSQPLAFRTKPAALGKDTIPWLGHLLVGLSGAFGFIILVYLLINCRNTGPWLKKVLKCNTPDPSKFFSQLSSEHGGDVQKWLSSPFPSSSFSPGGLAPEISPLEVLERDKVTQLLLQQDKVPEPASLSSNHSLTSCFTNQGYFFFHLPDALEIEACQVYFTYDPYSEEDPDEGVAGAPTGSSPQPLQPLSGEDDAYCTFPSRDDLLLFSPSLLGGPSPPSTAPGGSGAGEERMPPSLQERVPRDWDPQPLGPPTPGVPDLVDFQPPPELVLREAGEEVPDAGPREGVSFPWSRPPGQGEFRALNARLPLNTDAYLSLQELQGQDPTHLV
T3 sequence (looked up) 2: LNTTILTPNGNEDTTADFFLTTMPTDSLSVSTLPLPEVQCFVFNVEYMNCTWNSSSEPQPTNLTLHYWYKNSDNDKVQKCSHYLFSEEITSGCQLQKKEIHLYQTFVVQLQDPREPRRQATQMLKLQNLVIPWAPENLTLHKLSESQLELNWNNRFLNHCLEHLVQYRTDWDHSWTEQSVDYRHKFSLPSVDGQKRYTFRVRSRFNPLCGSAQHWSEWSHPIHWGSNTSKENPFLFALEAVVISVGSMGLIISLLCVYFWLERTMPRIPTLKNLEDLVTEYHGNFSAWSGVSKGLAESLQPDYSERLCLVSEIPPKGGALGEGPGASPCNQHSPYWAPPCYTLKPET

[4] = molecular target: T4, human IL-2 receptor βγc heterodimer (hIL-2Rβγc), soluble (human, UniProt P14784 27-240; P31785 23-254, biotin on the C-terminal biotin acceptor peptide); test: SPR, equilibrium titration; IL-2Rγ on streptavidin chip, saturating IL-2Rβ in solution
T4 construct: also called HsIL-2Rβγc; hIL-2Rβνc
T4 sequence 1: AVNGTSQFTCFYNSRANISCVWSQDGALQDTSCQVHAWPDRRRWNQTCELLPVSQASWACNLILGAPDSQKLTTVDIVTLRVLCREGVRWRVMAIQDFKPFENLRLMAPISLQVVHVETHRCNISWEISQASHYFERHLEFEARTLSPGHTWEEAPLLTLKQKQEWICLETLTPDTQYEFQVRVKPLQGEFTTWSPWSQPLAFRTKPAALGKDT
T4 sequence 2: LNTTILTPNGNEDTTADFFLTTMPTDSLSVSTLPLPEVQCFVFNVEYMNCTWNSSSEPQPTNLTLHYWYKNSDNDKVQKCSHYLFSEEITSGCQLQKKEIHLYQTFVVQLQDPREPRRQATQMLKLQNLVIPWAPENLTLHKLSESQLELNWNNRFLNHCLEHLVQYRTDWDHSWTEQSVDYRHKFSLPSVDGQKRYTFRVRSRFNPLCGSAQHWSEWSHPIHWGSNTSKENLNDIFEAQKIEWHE
Procedure: as §1

[5] = molecular target: T5, mouse IL-2 receptor βγc heterodimer (mIL-2Rβγc), soluble (mouse, UniProt P16297 27-240; P34902 23-263, biotin on the C-terminal biotin acceptor peptide); test: affinity maturation by yeast display for human and mouse IL-2Rβνc
T5 construct: extracellular domain; also called MmIL-2Rβγc; mIL-2Rβνc
T5 sequence 1: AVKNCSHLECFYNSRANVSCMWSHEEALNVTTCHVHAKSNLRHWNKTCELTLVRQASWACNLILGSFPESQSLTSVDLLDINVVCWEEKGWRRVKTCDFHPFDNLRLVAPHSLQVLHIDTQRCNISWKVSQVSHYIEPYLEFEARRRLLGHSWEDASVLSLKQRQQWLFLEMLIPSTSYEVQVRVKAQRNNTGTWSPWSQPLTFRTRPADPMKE
T5 sequence 2: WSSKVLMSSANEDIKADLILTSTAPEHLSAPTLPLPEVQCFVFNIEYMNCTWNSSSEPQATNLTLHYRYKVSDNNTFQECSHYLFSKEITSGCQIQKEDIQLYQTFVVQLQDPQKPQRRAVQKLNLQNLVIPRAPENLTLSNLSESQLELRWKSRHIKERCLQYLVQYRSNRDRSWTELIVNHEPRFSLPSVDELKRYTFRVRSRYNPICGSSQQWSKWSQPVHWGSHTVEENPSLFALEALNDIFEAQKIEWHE
Procedure: (§2) The vector was linearized by 100 fold overdigestion by NdeI and XhoI (New England Biolabs) and then purified by gel extraction (Qiagen). The genes included 50 bases of overlap with the vector on both the 5′ and 3′ ends such that homologous recombination would place the genes in frame between the AGA2 gene and the myc tag on the vector. Yeast were grown in C-Trp-Ura media prior to induction in SGCAA media as previously described. […] After approximately 30 minutes, cells were washed again in chilled buffer, and then incubated on ice for 5 minutes with FITC-conjugated anti-c-Myc antibody (1 uL per 3×10⁶ cells) and streptavidin-phycoerythrin (1 uL per 100 uL volume of yeast). Yeast were then washed and counted by flow cytometry (Accuri C6) or sorted by FACS (Sony SH800).

[6] = molecular target: T4, human IL-2 receptor βγc heterodimer …; test: as above
Procedure: as §2

[7] = molecular target: T6, fluorescently labeled chimeric hIL-2Rβγc (human, UniProt P14784 27-240; P31785 23-254); test: yeast display, flow cytometry
T6 construct: How beta and gamma are joined and labeled is not described; also called fluorescently-tagged beta-gamma chimeric IL-2 receptor; chimeric ILRβγc
T6 sequence (looked up) 1: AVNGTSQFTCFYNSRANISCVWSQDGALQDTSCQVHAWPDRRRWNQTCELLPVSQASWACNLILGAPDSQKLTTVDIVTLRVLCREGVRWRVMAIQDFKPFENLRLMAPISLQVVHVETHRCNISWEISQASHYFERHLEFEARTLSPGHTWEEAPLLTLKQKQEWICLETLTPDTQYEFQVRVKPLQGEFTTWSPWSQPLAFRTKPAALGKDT
T6 sequence (looked up) 2: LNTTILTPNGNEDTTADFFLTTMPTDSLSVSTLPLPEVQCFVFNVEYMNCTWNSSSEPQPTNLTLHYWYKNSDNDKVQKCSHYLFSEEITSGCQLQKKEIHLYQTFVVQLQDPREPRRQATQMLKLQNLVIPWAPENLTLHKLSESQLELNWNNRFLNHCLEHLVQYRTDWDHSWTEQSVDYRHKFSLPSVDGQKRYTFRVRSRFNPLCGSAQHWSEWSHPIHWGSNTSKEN

Binder	binding result [5]	binding result [6]	further results
Neoleukin-2/15 terminal disulfide variant (CNSN and NFQC added at the termini) (designed binder, disulfide bond between the N-terminal and the C-terminal cysteine, also called external disulfide-staple) CNSNKKKIQLHAEHALYDALMILNIVKTNSPPAEEKLEDYAFNFELILEEIARLFESGDQKDEAEKAKRMKEWMKRIKTTASEDEQEEMANAIITILQSWIFNFQC			Kd [1]: ~1.8 nM
G1_neo2_40 (designed binder, also called G1_ne02_40) STKKLQLQAEHALLDAQMMLNRSPEPNEKLNRIITTMQSWISTGKIDLDGAKELAKEVEELRQEAEKRGIDVRDLASNLKVILLELA			Kd [2]: 1460 nM; EC50 (CD25-) pSTAT5p, human NK (YT, CD25-) cells [3]: 0.14 nM; Kd [4]: 260 nM
G1_neo2_41 (designed binder, Single-disulfide stapled variation; In yeast display between Aga2 and a myc tag; also called G1_ne02_41) STKKLQLQAEHALLDAQMMLNRSPEPNEKLNRIITTMQSCISTGKCDLDGAKELAKEVEELRQEAEKRGIDVRDLASNLKVILLELA			Kd [2]: 721 nM; EC50 (CD25-) pSTAT5p, human NK (YT, CD25-) cells [3]: 70 pM; Kd [4]: 187 nM
G2_neo2_40_1F_seq29_S8 (designed binder) EDYYSNLKLILEELAREMERNGLSDKAEEWRQWKKIVERIRQIRSNNSDLNEAKELLNRLITYIQSQIFEVLEGVGETDQEKKEESWKKWELHLEHALLDVLMLLND	binds	binds	
G2_neo2_40_1F_seq29_S6 (designed binder) EDYYSNLKLILEELAREMERNGLSDKAEEWRQWKKIVERIRQIRSNNSDLNEAKELLNRLITYIQSQIFEVLHGVGETDQEKKEESWKKWDLLLEHALLDVLMLLND	binds	binds	
G2_neo2_40_1F_seq29_S7 (designed binder) EDYYSNLKVILEELAREMERNGLSDKAEEWRQWKKIVERIRQIRSNNSDLNEAKELLNELITYIQSQIFEVIEREGETDQEKKEESWKKWELHLEHALLDVLMLLND	binds	binds	
G1_neo2_43 (designed binder, Single-disulfide stapled variation; In yeast display between Aga2 and a myc tag; also called G1_ne02_43) STKKIQLQLEHALLDVQMALNRSPEPNESLNRMITWLQSCISTGKCDLDNAQEMAKEAEKIRKEMEKRGIDVRDLISNIIVILLELS			Kd [2]: 2860 nM; EC50 (CD25-) pSTAT5p, human NK (YT, CD25-) cells [3]: 0.21 nM; Kd [4]: 533 nM
G1_neo2_44 (designed binder) STKKIQLQLEHALLDVQMALNRSPEPNESLNRMITWLQSWISTGKIDLDNAQEMCKEAEKIRKEMEKRGIDVRDLISNICVILLELS			binding result [7]: no binding (tested: 2 nM)
G2_neo2_40_1F_seq27_S24 (designed binder) TNKKAQLHAEFALYDALMLLNLSSESNERLNDIITWLQSIIFTGTYDPDMVKEAVKLADEIEDEMRKRKIDTEDYVVNLRYILQELA	binds	binds	
G2_neo2_40_1F_seq27_S18 (designed binder) TNKEAQLHAEFALYDALMLLNLSSESNERLNRIITWLQSIIFYETYDPDMVKEAVKLADEIEDEMRKRKIDTEDYVVNLRLILQELA	binds	binds	
G2_neo2_40_1F_seq27_S22 (designed binder) TKKDAELLAEFALYDALMLLNLSSESNERLNEIITWLQSIIFYGTYDPDMVKEAVKLADEIEDEMRKRGIDTEDYVSNLRLILQELA	binds	binds	
G2_neo2_40_1F_seq36_S12 (designed binder) PKKKIQLLAEHALFDLLMILNIVKTNSQNAEEKLEDYAYNAGVILEEIARLFESGDQKDEAEKAKRMKEWMKRIKDTASEDEQEEMANEIITILQSWNFS	binds	binds	
Neoleukin-2/15 internal disulfide variant (disulfide between residues 38 and 75) (designed binder, disulfide bond between the cysteines at residues 38 and 75, also called internal disulfide-staple) PKKKIQLHAEHALYDALMILNIVKTNSPPAEEKLEDYCFNFELILEEIARLFESGDQKDEAEKAKRMKEWMKRICTTASEDEQEEMANAIITILQSWIFS			Kd [1]: ~1.3 nM
